# Test results: IntAct's records for PubMed 31515488
# B1: Programmed cell death 6-interacting protein (Homo sapiens), Q8WUM4 (parent)
# chain: MATFISVQLKKTSEVDLAKPLVKFIQQTYPSGGEEQAQYCRAAEELSKLRRAAVGRPLDKHEGALETLLRYYDQICSIEPKFPFSENQICLTFTWKDAFDKGSLFGGSVKLALASLGYEKSCVLFNCAALASQIAAEQNLDNDEGLKIAAKHYQFASGAFLHIKETVLSALSREPTVDISPDTVGTLSLIMLAQAQEVFFLKATRDKMKDAIIAKLANQAADYFGDAFKQCQYKDTLPKEVFPVLAAKHCIMQANAEYHQSILAKQQKKFGEEIARLQHAAELIKTVASRYDEYVNVKDFSDKINRALAAAKKDNDFIYHDRVPDLKDLDPIGKATLVKSTPVNVPISQKFTDLFEKMVPVSVQQSLAAYNQRKADLVNRSIAQMREATTLANGVLASLNLPAAIEDVSGDTVPQSILTKSRSVIEQGGIQTVDQLIKELPELLQRNREILDESLRLLDEEEATDNDLRAKFKERWQRTPSNELYKPLRAEGTNFRTVLDKAVQADGQVKECYQSHRDTIVLLCKPEPELNAAIPSANPAKTMQGSEVVNVLKSLLSNLDEVKKEREGLENDLKSVNFDMTSKFLTALAQDGVINEEALSVTELDRVYGGLTTKVQESLKKQEGLLKNIQVSHQEFSKMKQSNNEANLREEVLKNLATAYDNFVELVANLKEGTKFYNELTEILVRFQNKCSDIVFARKTERDELLKDLQQSIAREPSAPSIPTPAYQSSPAGGHAPTPPTPAPRTMPPTKPQPPARPPPPVLPANRAPSATAPSPVGAGTAAPAPSQTPGSAPPPQAQGPPYPTYPGYPGYCQMPMPMGYNPYAYGQYNMPYPPVYHQSPGQAPYPGPQQPSYPFPQPPQQSYYPQQ
# partner: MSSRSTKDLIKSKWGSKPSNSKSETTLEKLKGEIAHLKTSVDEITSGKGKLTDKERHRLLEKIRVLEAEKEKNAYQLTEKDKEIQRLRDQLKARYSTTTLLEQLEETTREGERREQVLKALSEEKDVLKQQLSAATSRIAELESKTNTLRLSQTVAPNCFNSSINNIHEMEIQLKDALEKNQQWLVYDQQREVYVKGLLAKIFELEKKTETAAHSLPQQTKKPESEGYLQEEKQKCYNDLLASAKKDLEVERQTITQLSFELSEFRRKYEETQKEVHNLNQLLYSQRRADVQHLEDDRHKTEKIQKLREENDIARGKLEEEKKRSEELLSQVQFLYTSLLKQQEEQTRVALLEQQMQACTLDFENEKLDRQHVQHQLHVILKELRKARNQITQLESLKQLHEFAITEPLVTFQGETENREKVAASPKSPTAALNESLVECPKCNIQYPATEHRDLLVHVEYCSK
# B2: Tumor susceptibility gene 101 protein (Homo sapiens), Q99816 (parent)
# chain: MAVSESQLKKMVSKYKYRDLTVRETVNVITLYKDLKPVLDSYVFNDGSSRELMNLTGTIPVPYRGNTYNIPICLWLLDTYPYNPPICFVKPTSSMTIKTGKHVDANGKIYLPYLHEWKHPQSDLLGLIQVMIVVFGDEPPVFSRPISASYPPYQATGPPNTSYMPGMPGGISPYPSGYPPNPSGYPGCPYPPGGPYPATTSSQYPSQPPVTTVGPSRDGTISEDTIRASLISAVSDKLRWRMKEEMDRAQAELNALKRTEEDLKKGHQKLEEMVTRLDQEVAEVDKNIELLKKKDEELSSALEKMENQSENNDIDEVIIPTAPLYKQILNLYAEENAIEDTIFYLGEALRRGVIDLDVFLKHVRLLSRKQFQLRALMQKARKTAGLSDLY
# B3: Complex I assembly factor TIMMDC1, mitochondrial (Homo sapiens), Q9NPL8 (parent)
# chain: MEVPPPAPRSFLCRALCLFPRVFAAEAVTADSEVLEERQKRLPYVPEPYYPESGWDRLRELFGKDEQQRISKDLANICKTAATAGIIGWVYGGIPAFIHAKQQYIEQSQAEIYHNRFDAVQSAHRAATRGFIRYGWRWGWRTAVFVTIFNTVNTSLNVYRNKDALSHFVIAGAVTGSLFRINVGLRGLVAGGIIGALLGTPVGGLLMAFQKYSGETVQERKQKDRKALHELKLEEWKGRLQVTEHLPEKIESSLQEDEPENDAKKIEALLNLPRNPSVIDKQDKD
# partner: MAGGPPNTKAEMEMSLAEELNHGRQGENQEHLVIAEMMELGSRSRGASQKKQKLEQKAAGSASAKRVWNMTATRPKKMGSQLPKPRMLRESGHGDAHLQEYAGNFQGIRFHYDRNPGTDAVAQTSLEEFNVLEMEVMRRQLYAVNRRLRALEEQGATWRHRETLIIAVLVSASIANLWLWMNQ
# B4: Annexin A10 (Homo sapiens), Q9UJ72 (parent)
# chain: MFCGDYVQGTIFPAPNFNPIMDAQMLGGALQGFDCDKDMLINILTQRCNAQRMMIAEAYQSMYGRDLIGDMREQLSDHFKDVMAGLMYPPPLYDAHELWHAMKGVGTDENCLIEILASRTNGEIFQMREAYCLQYSNNLQEDIYSETSGHFRDTLMNLVQGTREEGYTDPAMAAQDAMVLWEACQQKTGEHKTMLQMILCNKSYQQLRLVFQEFQNISGQDMVDAINECYDGYFQELLVAIVLCVRDKPAYFAYRLYSAIHDFGFHNKTVIRILIARSEIDLLTIRKRYKERYGKSLFHDIRNFASGHYKKALLAICAGDAEDY
# partner: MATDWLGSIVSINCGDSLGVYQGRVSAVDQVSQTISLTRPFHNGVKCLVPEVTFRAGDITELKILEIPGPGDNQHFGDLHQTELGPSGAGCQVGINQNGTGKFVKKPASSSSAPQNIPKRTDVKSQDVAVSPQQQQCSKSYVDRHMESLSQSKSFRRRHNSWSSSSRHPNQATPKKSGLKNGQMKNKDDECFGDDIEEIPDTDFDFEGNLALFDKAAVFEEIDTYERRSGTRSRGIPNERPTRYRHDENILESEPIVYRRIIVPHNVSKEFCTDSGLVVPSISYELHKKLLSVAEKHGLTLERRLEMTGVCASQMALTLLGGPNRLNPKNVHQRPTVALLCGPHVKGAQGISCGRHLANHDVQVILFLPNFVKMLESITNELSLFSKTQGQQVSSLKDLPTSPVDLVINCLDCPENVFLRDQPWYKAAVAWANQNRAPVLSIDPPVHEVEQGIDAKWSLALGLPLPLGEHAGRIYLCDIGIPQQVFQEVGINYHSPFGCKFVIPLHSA
# Variants of: B1
# Details: with cep55_human CEP55, Q53EZ4
row,Variant,effect of a mutation on the interaction
1,G429S,with no effect
2,S730L,with no effect
3,G778A,with no effect
4,N550S,with no effect
5,A309T,with no effect

# Variants of: B2
# Details: with hgs_human HGS
row,Variant,effect of a mutation on the interaction
1,M167I,with no effect

# Variants of: B3
# Details: with fate1_human FATE1, Q969F0
row,Variant,effect of a mutation on the interaction
1,N76D,with no effect
2,A164G,with no effect
3,P247S,with no effect

# Variants of: B4
# Details: with edc3_human EDC3, Q96F86
row,Variant,effect of a mutation on the interaction
1,M71L,with no effect
2,M62T,disrupting interaction strength
